Values of other authors in patent publication US9889085B1, “Therapeutic methods for the treatment of diabetes and related conditions for patients with high baseline HbA1c” (Intarcia Therapeutics, Inc., priority 2014, dated 2018).

Conditions: in vivo

Substance: EGTFTSDVSSYLEGQAAKEFIAWLVKGR [GLP-1]
- half-life: approximately 2 minutes

Substance: PYY: 36 amino acid residue peptide amide
- half-life: approximately 8 minutes
